Our source for the CTLL-2 cell proliferation (WST-1 absorbance), EC50 values is paper PMC9625839.

For this test, the target named is high-affinity mouse IL2 receptor on CTLL-2 cells (mouse (endogenous in CTLL-2)).

On to “aldesleukin (FDA-approved recombinant human IL2) (from UniProt P60568 21-133) (ligand)”, for which the CTLL-2 cell proliferation (WST-1 absorbance), EC50 was found to be 0.6 ng/mL.
